The test concerns the target cynomolgus CD3 on mfCD3 engineered Jurkat cells (cynomolgus CD3ε and CD3δ in place of the human versions) (cynomolgus) (UniProt Q95LI5). As to the kind of experiment: flow cytometry on mfCD3 engineered Jurkat cells, median EC50, n=2. For orientation: In flow cytometry, cells or beads pass a laser one at a time.

Chain of cynomolgus CD3 on mfCD3 engineered Jurkat cells (cynomolgus CD3ε and CD3δ in place of the human versions) (cynomolgus) (Q95LI5 22-198, stated change not applied, chain 1 of 2): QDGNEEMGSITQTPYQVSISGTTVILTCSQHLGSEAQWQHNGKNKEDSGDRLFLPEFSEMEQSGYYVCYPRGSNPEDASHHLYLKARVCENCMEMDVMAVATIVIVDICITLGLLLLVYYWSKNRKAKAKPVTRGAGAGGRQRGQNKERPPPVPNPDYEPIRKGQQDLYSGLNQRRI
Chain of cynomolgus CD3 on mfCD3 engineered Jurkat cells (cynomolgus CD3ε and CD3δ in place of the human versions) (cynomolgus) (Q95LI8 22-171, stated change not applied, chain 2 of 2, further chain): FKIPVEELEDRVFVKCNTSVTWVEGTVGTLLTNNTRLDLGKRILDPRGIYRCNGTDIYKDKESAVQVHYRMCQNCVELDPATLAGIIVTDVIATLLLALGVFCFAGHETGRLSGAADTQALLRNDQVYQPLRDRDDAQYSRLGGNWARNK
Chain of REGN5458 (bsAb25441D), anti-BCMA x anti-CD3 bispecific antibody (VH): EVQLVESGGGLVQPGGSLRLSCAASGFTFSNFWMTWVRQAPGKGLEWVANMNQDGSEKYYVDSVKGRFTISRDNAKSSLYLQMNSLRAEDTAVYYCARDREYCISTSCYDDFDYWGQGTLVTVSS
Chain of REGN5458 (bsAb25441D), anti-BCMA x anti-CD3 bispecific antibody (VH): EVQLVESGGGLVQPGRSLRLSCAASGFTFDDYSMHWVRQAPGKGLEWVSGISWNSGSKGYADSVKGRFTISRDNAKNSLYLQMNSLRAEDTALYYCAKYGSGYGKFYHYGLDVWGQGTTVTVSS
Chain of REGN5458 (bsAb25441D), anti-BCMA x anti-CD3 bispecific antibody (VL): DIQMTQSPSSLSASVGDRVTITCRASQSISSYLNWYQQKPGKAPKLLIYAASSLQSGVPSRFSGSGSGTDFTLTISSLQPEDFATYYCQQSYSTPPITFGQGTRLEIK

Turning to “REGN5458 (bsAb25441D), anti-BCMA x anti-CD3 bispecific antibody”, the 50% effective concentration (EC50) (as a rule, the concentration that produces a half-maximal response) is 15.1 nM.

Source of the values: US20220306758A1.
